From patent publication EP0797662B1

Target: extracellular domain of the aFGF receptor (sFGFR)
Assay: ITC, aFGF and the extracellular domain of its receptor

aFGF, sequence (P05230 16-155): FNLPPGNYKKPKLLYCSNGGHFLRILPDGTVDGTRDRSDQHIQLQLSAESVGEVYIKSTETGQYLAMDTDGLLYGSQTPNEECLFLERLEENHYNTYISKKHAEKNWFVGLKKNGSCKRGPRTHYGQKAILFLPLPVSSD

For aFGF, the Kd was 500 nM.
